Laboratory results from patent publication US20250296958A1, “GL[…] E[…]” (THE ADMINISTRATORS OF THE TULANE EDUCATIONAL FUND, priority 2022, published 2025).
Bridges are numbered along the chain shown (N, C = ends). Where no end group is shown, it is not given here. [ ]: non-standard residue; d: D form. Glc = glycosylated with D-glucose; Lact = not defined here

Experiments:
mu opioid receptor [1] = target: mu opioid receptor (UniProt P35372); test: PDSP receptor binding
kappa opioid receptor [2] = target: kappa opioid receptor (UniProt P41145); test: PDSP receptor binding, selectivity against MOR; from the 10,000 nM ceiling
delta opioid receptor [3] = target: delta opioid receptor (UniProt P41143); test: as above
kappa opioid receptor [4] = target: kappa opioid receptor (UniProt P41145); test: PDSP receptor binding; binding eliminated by the text
delta opioid receptor [5] = target: delta opioid receptor (UniProt P41143); test: as above
mu opioid receptor [6] = target: mu opioid receptor (UniProt P35372); test: PDSP receptor binding; log of Ki in M
mu opioid receptor [7] = target: mu opioid receptor (UniProt P35372); test: PDSP receptor binding; against the glycosylated Trp analogs
[8] = target: kappa opioid receptor, P41145; test: PDSP receptor binding; log of Ki in M

B1: Analog A4 (D-Nal at position 3, C-terminus Ser(Glc)CONH2) (peptide)
peptide: YK[dNal]FES(Glc)-NH2
modifications: not fully specified
Ki (mu opioid receptor [1]): 0.0635 µM
kap/mu (ratio of Ki at KOR to Ki at MOR) (kappa opioid receptor [2]): > 157
del/mu (ratio of Ki at DOR to Ki at MOR) (delta opioid receptor [3]): > 157
Ki (kappa opioid receptor [4]): > 10 µM
Ki (delta opioid receptor [5]): > 10 µM
Log Ki (mu opioid receptor [6]): -7.2
further fold reduction of MOR binding by D-Nal at position 3 (mu opioid receptor [7]): 11 fold

B2: Analog A5 (D-Nal at position 3, C-terminus Ser(Lact)CONH2) (peptide)
peptide: YK[dNal]FES(Lact)-NH2
modifications: not fully specified; reading uncertain
Ki (mu opioid receptor [1]): 0.0553 µM
kap/mu (ratio of Ki at KOR to Ki at MOR) (kappa opioid receptor [2]): > 181
del/mu (ratio of Ki at DOR to Ki at MOR) (delta opioid receptor [3]): > 181
Ki (kappa opioid receptor [4]): > 10 µM
Ki (delta opioid receptor [5]): > 10 µM
Log Ki (mu opioid receptor [6]): -7.26
further fold reduction of MOR binding by D-Nal at position 3 (mu opioid receptor [7]): 11 fold

B3: Analog A8: Tyr-c[D-Lys-Trp-Phe-Glu]-Ser-NH2 (peptide)
peptide: Y[dK]WFES-NH2
modifications: lactam 2-5
Log Ki [8]: -5.98
